Laboratory results published in patent publication US20060014193A1, “Nucleoside phosphoramidates and nucleoside phosphoramidases” (priority 2004, published 2006).

B1: hHINT1 (Homo sapiens) (protein)
chain: MADEIAKAQVARPGGDTIFGKIIRKEIPAKIIFEDDRCLAFHDISPQAPTHFLVIPKKHISQISVAEDDDESLLGHLMIVGKKCAADLGLNKGYRMVVNEGSDGGQSVYHVHLHVLGGRQMHWPPG
B2: E. coli hinT (Escherichia coli K-12) (protein)
chain: MAEETIFSKIIRREIPSDIVYQDDLVTAFRDISPQAPTHILIIPNILIPTVNDVSAEHEQALGRMITVAAKIAEQEGIAEDGYRLIMNTNRHGGQEVYHIHMHLLGGRPLGPMLAHKGL

How the values were obtained:
[1] = substrate: NCCc1c[nH]c2ccccc12; test: Phosphoramidase fluorescence assay; format: biochemical, human; conditions: other: Table 5; pH 7.2; 25.0 °C
Method: The fluorescence of tryptophan (ex, 280 nm, em 360 nm) can be quenched when covalently attached to a nucleoside monophosphate, and nucleoside phosphoramidates of D- and L-tryptophan and tryptamine are excellent fluorescent substrates for hHINT1. Typically, after measurement of initial substrate fluorescence, hHINT1 was added to the reaction solution (HEPES buffer, pH 7.2, 25° C.) and the change in fluorescence over 2 min was determined by converting the slope into μM of substrate hydrolyzed per μg of enzyme per min with a standard curve. […] Based on the generation of chimeric polypeptides between the hHINTI and the hinT of E. coli, the preference for D enantiomers by the human HINT1 polypeptide is likely conferred by the C-terminus amino acids (e.g., the C-terminus 5, 6, 5 7, 8, 9, 10, or 11 amino acids) of the hHINT1 enzyme. […] In addition, both D-tryptophan phosphoramidates of cytosine and uridine were substrates. Initial rates were determined 10 during the first 10-20% of the reaction for variable substrate concentrations. The Michaelis-Menten constants, kcat and Km, for selected nucleoside phosphosphoramidates have been determined. (Table 4). As observed in the initial screening assay, for phosphoramidates containing L-tryptophan, hHINT1 has a 7-fold greater preference for AMP phosphoramidates of L-tryptophan than GMP.

[2] = substrate: NCCc1c[nH]c2ccccc12; test: Phosphoramidase fluorescence assay; format: biochemical, E. coli; conditions: other: Table 5; pH 7.2; 25.0 °C

Protein	Km [1]	kcat [1]	kcat/Km [1]	Km [2]	kcat [2]	kcat/Km [2]
B1	1.74 ± 0.22 µM	0.97 ± 0.11 s⁻¹	558000 M⁻¹ s⁻¹			
B2				30.1 ± 2.39 µM	0.45 ± 0.04 s⁻¹	15000 M⁻¹ s⁻¹
